According to patent US8663616B2, “Enzymatic peracid generation for use in oral care products” (E I du Pont de Nemours and Company, priority 2010, dated 2014):

What was measured:
[1] = T. maritima C277S/C277T constructs, peracetic acid in solution (Example 11); type: biochemical; settings: 0.5 μM enzyme, 100 mM triacetin, 100 mM H2O2, pH 7.2, 10 min, 37° C.; no enzyme 114
Procedure: (§1) The detection of peracetic acid followed the method described in Pinkernell et. al. (Analyst, 1997, 122, 567) using colorimetric detection of 2,2′-azino-bis(3-ethylbenzothiazoline(-6-sulfonate (ABTS) oxidation by peracetic acid. Following the formation of peracetic acid with the addition of triacetin and hydrogen peroxide, 90 μL of solution was added to 10 μL of 0.1 M H3PO4 in a well plate. 50 μL of 1 M acetic acid, 50 μL of 0.5 g/L ABTS and 50 μL of 0.002 g/L of KI was added. The solution was allowed to develop for 5 min. The absorbance of the solution was measured at 405 nm using a microplate reader. The peracetic acid concentration was calculated based on a standard curve developed simultaneously using peracetic acid reagent solution.
Perhydrolase enzymes listed in Table 5 were assessed for enzyme activity in solution as described in Example 7. The enzyme activity in solution was measured by making a 500 μl solution of 0.5 μM of each enzyme in 100 mM triacetin, 100 mM H2O2 and 10 mM phosphate buffer, pH 7.2. The solution was incubated for 10 min, at 37° C. After the reaction was stopped by mixing an aliquot with H3PO4, a 10 μL aliquot was removed for proper dilution, and then detected via ABTS oxidation as described in Example 7.

[2] = T. maritima C277S/C277T constructs, peracetic acid when bound to bovine enamel (Example 11); type: biochemical; settings: bovine enamel exposed to 10 μM enzyme, 4 washes; 100 mM triacetin, 100 mM H2O2, 30 min, 37° C.; no enzyme 570
Procedure: as §1
The perhydrolase enzymes were also assessed for binding to bovine enamel substrates. Enamel substrates were prepared as described in Example 2 and 3. Each enamel block was hydrated in water for overnight at room temperature (˜22° C.). The enamel blocks were then equilibrated with 10 mM potassium phosphate buffer, pH7.2, for 10 min. The enamel substrates were rinsed 3 times the buffer. The enamel wells were filled with 500 μL of 10 μM enzyme solutions which was prepared by diluting in 10 mM phosphate buffer. The samples were incubated for 30 min with slow shaking at 37° C. The non-binding enzyme was removed by washing 4 times with phosphate buffer. Then, each enamel block was embedded inside a putty filled 24-well plate, with only the enamel top surface exposed. The perhydrolase activity from enamel bound enzyme was measured as described in Example 8. 100 μL reaction mixtures (100 mM phosphate buffer, pH7.2 and 100 mM H2O2 and 100 mM triacetin) was added on top of the enamel and incubated for 30 min at 37° C. A 90 μL aliquot was removed for detection via ABTS oxidation as noted in Example 8. Each sample data point represents an average of 3 independent enamel blocks.

Row | Molecule | Peracetic acid (ppm) In Solution [1] [ppm] | Peracetic acid (ppm) On Enamel [2] [ppm]
1 | EZ-16: C277T-link1-HC263-H6, SEQ ID NO: 440 (protein) MAFFDLPLEELKKYRPERYEEKDFDEFWEETLAESEKFPLDPVFERMESHLKTVEAYDVTFSGYRGQRIKGWLLVPKLEEEKLPCVVQYIGYNGGRGFPHDWLFWPSMGYICFVMDTRGQGSGWLKGDTPDYPEGPVDPQYPGFMTRGILDPRTYYYRRVFTDAVRAVEAAASFPQVDQERIVIAGGSQGGGIALAVSALSKKAKALLCDVPFLCHFRRAVQLVDTHPYAEITNFLKTHRDKEEIVFRTLSYFDGVNFAARAKIPALFSVGLMDNITPPSTVFAAYNYYAGPKEIRIYPYNNHEGGGSFQAVEQVKFLKKLFEKGGPGSGGAGSPGSAGGPGSPSAQSQLPDKHSGLHERAPQRYGPEPEPEPEPIPEPPKEAPVVIEKPKPKPKPKPKPPAHDHKNQKETHQRHAAGSGGGGSPHHHHHH | 6496 | 1832
2 | EZ-18: C277T-link1-(GK)5-H6, SEQ ID NO: 442 (protein) MAFFDLPLEELKKYRPERYEEKDFDEFWEETLAESEKFPLDPVFERMESHLKTVEAYDVTFSGYRGQRIKGWLLVPKLEEEKLPCVVQYIGYNGGRGFPHDWLFWPSMGYICFVMDTRGQGSGWLKGDTPDYPEGPVDPQYPGFMTRGILDPRTYYYRRVFTDAVRAVEAAASFPQVDQERIVIAGGSQGGGIALAVSALSKKAKALLCDVPFLCHFRRAVQLVDTHPYAEITNFLKTHRDKEEIVFRTLSYFDGVNFAARAKIPALFSVGLMDNITPPSTVFAAYNYYAGPKEIRIYPYNNHEGGGSFQAVEQVKFLKKLFEKGGPGSGGAGSPGSAGGPGSGKGKGKGKGKHHHHHH | 5537 | 1158
3 | EZ-15: C277T-link1-H6, SEQ ID NO: 439 (protein) MAFFDLPLEELKKYRPERYEEKDFDEFWEETLAESEKFPLDPVFERMESHLKTVEAYDVTFSGYRGQRIKGWLLVPKLEEEKLPCVVQYIGYNGGRGFPHDWLFWPSMGYICFVMDTRGQGSGWLKGDTPDYPEGPVDPQYPGFMTRGILDPRTYYYRRVFTDAVRAVEAAASFPQVDQERIVIAGGSQGGGIALAVSALSKKAKALLCDVPFLCHFRRAVQLVDTHPYAEITNFLKTHRDKEEIVFRTLSYFDGVNFAARAKIPALFSVGLMDNITPPSTVFAAYNYYAGPKEIRIYPYNNHEGGGSFQAVEQVKFLKKLFEKGGPGSGGAGSPGSAGGPGSHHHHHH | 5921 | 631
4 | EZ-17: C277T-link2-H6, SEQ ID NO: 441 (protein) MAFFDLPLEELKKYRPERYEEKDFDEFWEETLAESEKFPLDPVFERMESHLKTVEAYDVTFSGYRGQRIKGWLLVPKLEEEKLPCVVQYIGYNGGRGFPHDWLFWPSMGYICFVMDTRGQGSGWLKGDTPDYPEGPVDPQYPGFMTRGILDPRTYYYRRVFTDAVRAVEAAASFPQVDQERIVIAGGSQGGGIALAVSALSKKAKALLCDVPFLCHFRRAVQLVDTHPYAEITNFLKTHRDKEEIVFRTLSYFDGVNFAARAKIPALFSVGLMDNITPPSTVFAAYNYYAGPKEIRIYPYNNHEGGGSFQAVEQVKFLKKLFEKGGSHHHHHH | 5360 | 616
5 | EZ-14: C277T-link1-DenP308-H6, SEQ ID NO: 438 (protein) MAFFDLPLEELKKYRPERYEEKDFDEFWEETLAESEKFPLDPVFERMESHLKTVEAYDVTFSGYRGQRIKGWLLVPKLEEEKLPCVVQYIGYNGGRGFPHDWLFWPSMGYICFVMDTRGQGSGWLKGDTPDYPEGPVDPQYPGFMTRGILDPRTYYYRRVFTDAVRAVEAAASFPQVDQERIVIAGGSQGGGIALAVSALSKKAKALLCDVPFLCHFRRAVQLVDTHPYAEITNFLKTHRDKEEIVFRTLSYFDGVNFAARAKIPALFSVGLMDNITPPSTVFAAYNYYAGPKEIRIYPYNNHEGGGSFQAVEQVKFLKKLFEKGGPGSGGAGSPGSAGGPGSTKPPRTPTANTSRPHHNFGSGGGGSPHHHHHH | 4689 | 1418
6 | EZ-12: T. maritima C277T variant, untargeted, SEQ ID NO: 437 (protein) MAFFDLPLEELKKYRPERYEEKDFDEFWEETLAESEKFPLDPVFERMESHLKTVEAYDVTFSGYRGQRIKGWLLVPKLEEEKLPCVVQYIGYNGGRGFPHDWLFWPSMGYICFVMDTRGQGSGWLKGDTPDYPEGPVDPQYPGFMTRGILDPRTYYYRRVFTDAVRAVEAAASFPQVDQERIVIAGGSQGGGIALAVSALSKKAKALLCDVPFLCHFRRAVQLVDTHPYAEITNFLKTHRDKEEIVFRTLSYFDGVNFAARAKIPALFSVGLMDNITPPSTVFAAYNYYAGPKEIRIYPYNNHEGGGSFQAVEQVKFLKKLFEKG | 4918 | 612
